Test results as given in article PMC6791878, “Evaluation of integrin αvβ6 cystine knot PET tracers to detect cancer and idiopathic pulmonary fibrosis” (Nature Communications, 2019).
Read-outs that look alike come from different tables or passages of the source.

Legend:
[1] = clinical; conditions: human, iv, total radioactivity
Experimental: (§1) The administered dose was 55.5–96.2MBq (1.5–2.6 mCi). The scan (6 bed positions, 2 min bed^−1) covered an area that included the top of the skull to the middle of the femur. OSEM was applied for reconstruction. […] The CT scan (140 kV, 35 mA, pitch of 1:1, layer of 5 mm thickness; layer spacing of 3 mm, 512*512 matrix, field of view of 70 cm) also covered the top of the skull to the middle of the femur. […] Immediately upon completion of the first scan, the second whole-body static PET data was acquired. Sequentially, multiple whole-body static PET scans were acquired, one by one, from 0 to 75 min.
(§2) Upon co-registration of the PET and CT images, the CT images were used to determine regions of interest for the organs or tissues reported in the manuscript. These ROIs were applied to the PET images of the brain, pituitary gland, breast, lower and upper large intestine, small intestine, stomach, pancreas, heart wall, liver, lung, muscle, red marrow, bone, skin, and thyroid gland. For high uptake organs such as the kidneys, bladder and for the whole body, threshold-based segmentation of PET images were used to determine a close-fitting ROI around the entire organ or whole body. In order to determine accuracy, these PET-derived ROIs were compared to the CT overlay for a close match.

[2] = system: pancreatic, cervical and lung cancer; conditions: one patient, Fig 4C
Experimental: as §1, §2

Which SUV ([1]; both, kidney, average SUVmean, ~1 h p.i., cancer patients) does the source give for CC[C@H](C)[C@@H]1NC(=O)[C@@H](NC(=O)CNC(=O)CCC(C(=O)O)N2CCN(CC(=O)O)CCN(CC(=O)O)CC2)CSSC[C@@H]2NC(=O)[C@H](C)NC(=O)CNC(=O)[C@@H]3CCCN3C(=O)[C@@H]3CSSC[C@@H](C(=O)NCC(N)=O)NC(=O)[C@H](Cc4ccc(O)cc4)NC(=O)CNC(=O)[C@H](CC(N)=O)NC(=O)CNC(=O)[C@H](CCCNC(=N)N)NC(=O)[C@H](CSSC[C@H](NC(=O)[C@H](CCCNC(=N)N)NC(=O)[C@H](Cc4ccccc4)NC(=O)[C@H](CC(C)C)NC(=O)[C@H](CC(C)C)NC(=O)[C@H]([C@@H](C)O)NC(=O)CNC(=O)[C@H](CC(C)C)NC(=O)[C@H](CC(=O)O)NC(=O)[C@H]([C@@H](C)O)NC(=O)[C@H](CCCNC(=N)N)NC(=O)CNC(=O)[C@H](CC(N)=O)NC(=O)[C@H](CC(C)C)NC1=O)C(=O)N[C@@H](CCCNC(=N)N)C(=O)N[C@@H](CCCNC(=N)N)C(=O)N[C@@H](CC(=O)O)C(=O)N[C@@H](CO)C(=O)N[C@@H](CC(=O)O)C(=O)N3)NC(=O)[C@H]([C@@H](C)CC)NC2=O (stereo partly shown) [[^68Ga]NODAGA-R01-MG, metal not drawn] here?
Its SUV is 19.9 ± 2.23 SUV.

What about the SUV ([1]; both, normal pancreas, SUVmean, n = 5, ± S.D.) of the same compound?
Its SUV is 1.79 ± 0.47 SUV.

What about the SUV ([1]; both, pancreatic tumour, average SUVmean, pancreatic cancer, pancreatic cancer patients) of the same compound?
Its SUV is 4.2 ± 0.1 SUV.

What about the SUV ([1]; both, small intestines, average SUVmean, cancer patients) of the same compound?
The SUV was 7.06 ± 2.74 SUV.

What about the SUV ([1]; both, stomach, average SUVmean, cancer patients) of the same compound?
The SUV was 8.87 ± 6.52 SUV.

What about the SUV ([1]; head of pancreas, SUVmean, one pancreatic cancer patient (Fig 4d)) of the same compound?
The SUV was roughly 3.1 SUV.

And the SUV ([1]; lung tumor, SUVmean, patient, squamous cell carcinoma of the lung)?
The SUV was 2.2 SUV.

And the SUV ([1]; tail of pancreas, SUVmean, one pancreatic cancer patient (Fig 4d))?
Its SUV is roughly 4.4 SUV.

What about the SUV ([1]; tumor in tail of pancreas, 2.2 mCi, SUVmean, patient, ~50 minutes p.i.) of the same compound?
Its SUV is 4.3 SUV.

What about the “ROI uptake Bl (bladder)” value ([2]; 9 min p.i.) of the same compound?
The value was 1.885.

And the “ROI uptake Bn (osteogenic cells)” value ([2]; 9 min p.i.)?
The value was 0.4959.

And the “ROI uptake Br (brain)” value ([2]; 9 min p.i.)?
Its value is 0.05775.

And the “ROI uptake Brs (breast)” value ([2]; 9 min p.i.)?
Its value is 0.428.

And the “ROI uptake HC (heart contents)” value ([2]; 9 min p.i.)?
Its value is 1.158.

What about the “ROI uptake HW (heart wall)” value ([2]; 9 min p.i.) of the same compound?
Its value is 0.7507.

What about the “ROI uptake LLI (lower large intestine)” value ([2]; 9 min p.i.) of the same compound?
The value was 1.4.

And the “ROI uptake Ln (lung)” value ([2]; 9 min p.i.)?
Its value is 0.3091.

And the “ROI uptake Lv (liver)” value ([2]; 9 min p.i.)?
The value was 0.8628.

What about the “ROI uptake Ms (muscle)” value ([2]; 9 min p.i.) of the same compound?
Its value is 0.6964.

What about the “ROI uptake Pn (pancreas)” value ([2]; 9 min p.i.) of the same compound?
The value was 1.576.

What about the “ROI uptake Pt (pituitary gland)” value ([2]; 9 min p.i.) of the same compound?
The value was 2.269.

And the “ROI uptake RM (red marrow)” value ([2]; 9 min p.i.)?
Its value is 0.2412.

What about the “ROI uptake SI (small intestine)” value ([2]; 9 min p.i.) of the same compound?
The value was 6.974.

And the “ROI uptake Sk (skin)” value ([2]; 9 min p.i.)?
Its value is 0.09851.

What about the “ROI uptake Sp (spleen)” value ([2]; 9 min p.i.) of the same compound?
The value was 0.7065.

What about the “ROI uptake St (stomach)” value ([2]; 9 min p.i.) of the same compound?
Its value is 2.524.

What about the “ROI uptake TB (total body)” value ([2]; 9 min p.i.) of the same compound?
The value was 0.6998.

What about the “ROI uptake Tm (thymus)” value ([2]; 9 min p.i.) of the same compound?
Its value is 0.7337.

And the “ROI uptake Tr (thyroid)” value ([2]; 9 min p.i.)?
Its value is 1.94.

And the “ROI uptake ULI (upper large intestine)” value ([2]; 9 min p.i.)?
The value was 1.923.

What about the “ROI uptake Bl (bladder)” value ([2]; 22 min p.i.) of the same compound?
The value was 6.4.

And the “ROI uptake Bn (osteogenic cells)” value ([2]; 22 min p.i.)?
The value was 0.4058.

And the “ROI uptake Br (brain)” value ([2]; 22 min p.i.)?
Its value is 0.03902.

And the “ROI uptake Brs (breast)” value ([2]; 22 min p.i.)?
Its value is 0.5151.

And the “ROI uptake HC (heart contents)” value ([2]; 22 min p.i.)?
Its value is 0.7844.

And the “ROI uptake HW (heart wall)” value ([2]; 22 min p.i.)?
Its value is 0.4761.

What about the “ROI uptake LLI (lower large intestine)” value ([2]; 22 min p.i.) of the same compound?
The value was 1.495.

And the “ROI uptake Ln (lung)” value ([2]; 22 min p.i.)?
The value was 0.3044.

What about the “ROI uptake Lv (liver)” value ([2]; 22 min p.i.) of the same compound?
The value was 0.7375.

What about the “ROI uptake Ms (muscle)” value ([2]; 22 min p.i.) of the same compound?
Its value is 0.6868.

What about the “ROI uptake Pn (pancreas)” value ([2]; 22 min p.i.) of the same compound?
Its value is 1.214.

And the “ROI uptake Pt (pituitary gland)” value ([2]; 22 min p.i.)?
The value was 1.986.

And the “ROI uptake RM (red marrow)” value ([2]; 22 min p.i.)?
The value was 0.1015.

And the “ROI uptake SI (small intestine)” value ([2]; 22 min p.i.)?
The value was 7.153.

What about the “ROI uptake Sk (skin)” value ([2]; 22 min p.i.) of the same compound?
Its value is 0.09365.

What about the “ROI uptake Sp (spleen)” value ([2]; 22 min p.i.) of the same compound?
Its value is 0.5971.

And the “ROI uptake St (stomach)” value ([2]; 22 min p.i.)?
The value was 2.337.

What about the “ROI uptake TB (total body)” value ([2]; 22 min p.i.) of the same compound?
Its value is 0.6751.

And the “ROI uptake Tm (thymus)” value ([2]; 22 min p.i.)?
Its value is 0.7375.

What about the “ROI uptake Tr (thyroid)” value ([2]; 22 min p.i.) of the same compound?
The value was 0.7922.

What about the “ROI uptake ULI (upper large intestine)” value ([2]; 22 min p.i.) of the same compound?
The value was 1.432.

And the “ROI uptake Bl (bladder)” value ([2]; 36 min p.i.)?
The value was 8.426.

What about the “ROI uptake Bn (osteogenic cells)” value ([2]; 36 min p.i.) of the same compound?
The value was 0.4395.

And the “ROI uptake Br (brain)” value ([2]; 36 min p.i.)?
The value was 0.03531.

And the “ROI uptake Brs (breast)” value ([2]; 36 min p.i.)?
Its value is 0.6278.

And the “ROI uptake HC (heart contents)” value ([2]; 36 min p.i.)?
Its value is 0.722.

And the “ROI uptake HW (heart wall)” value ([2]; 36 min p.i.)?
Its value is 0.4798.

What about the “ROI uptake LLI (lower large intestine)” value ([2]; 36 min p.i.) of the same compound?
The value was 1.238.

And the “ROI uptake Ln (lung)” value ([2]; 36 min p.i.)?
Its value is 0.3094.

And the “ROI uptake Lv (liver)” value ([2]; 36 min p.i.)?
Its value is 0.6906.

What about the “ROI uptake Ms (muscle)” value ([2]; 36 min p.i.) of the same compound?
The value was 0.7579.

And the “ROI uptake Pn (pancreas)” value ([2]; 36 min p.i.)?
Its value is 1.296.

What about the “ROI uptake Pt (pituitary gland)” value ([2]; 36 min p.i.) of the same compound?
The value was 2.22.

And the “ROI uptake RM (red marrow)” value ([2]; 36 min p.i.)?
The value was 0.2108.

What about the “ROI uptake SI (small intestine)” value ([2]; 36 min p.i.) of the same compound?
The value was 6.296.

What about the “ROI uptake Sk (skin)” value ([2]; 36 min p.i.) of the same compound?
Its value is 0.08072.

And the “ROI uptake Sp (spleen)” value ([2]; 36 min p.i.)?
The value was 0.426.

What about the “ROI uptake St (stomach)” value ([2]; 36 min p.i.) of the same compound?
Its value is 2.242.

What about the “ROI uptake TB (total body)” value ([2]; 36 min p.i.) of the same compound?
Its value is 0.6996.

What about the “ROI uptake Tm (thymus)” value ([2]; 36 min p.i.) of the same compound?
The value was 0.6323.

And the “ROI uptake Tr (thyroid)” value ([2]; 36 min p.i.)?
Its value is 0.7534.

What about the “ROI uptake ULI (upper large intestine)” value ([2]; 36 min p.i.) of the same compound?
The value was 1.834.

What about the “ROI uptake Bl (bladder)” value ([2]; 49 min p.i.) of the same compound?
Its value is 9.366.
